Results published in patent publication CN101538329A.

B1: A10 单克隆噬菌体抗体 (phage-displayed human anti-Aβ scFv, clone A10) (scFv, part only; not given: linker, tag and phage fusion, not shown: small tags and cut ends; large carriers)
scFv (part 1 of 2), part: EVQLVQSGAEVKRPGSSVNVSCKASGGTLSNYGLSWVRQAPGQGLEWMGGIIPSFGPANYAQIFQGRVTITADESTNTAYMELRSLTSDDTAVYYCAREGGVGVATTYWLDPWGQGTTVTVSS
scFv (part 2 of 2), part: HFMLTQPHSVSESPGKTVTISCTRSSGSIASTYVHWYQQRPGTSPTTVIYEDNRRHSRVPDRFSGSIDSSSNSASLTISGLKTEDEGDYYCQSYDSTNAWVFGGGTKVTVLG
B2: F2 单克隆噬菌体抗体 (phage-displayed human anti-Aβ scFv, clone F2) (scFv, part only; not given: linker, tag and phage fusion, not shown: small tags and cut ends; large carriers)
scFv (part 1 of 2), part: B1 scFv (part 1 of 2), part
scFv (part 2 of 2), part: B1 scFv (part 2 of 2), part
B3: A10 可溶性抗Aβ scFv (soluble scFv of clone A10 expressed in E. coli HB2151) (scFv, V domains shown, not shown: small tags and cut ends)
VH: B1 scFv (part 1 of 2), part
VL: B1 scFv (part 2 of 2), part
B4: F2 可溶性抗Aβ scFv (soluble scFv of clone F2 expressed in E. coli HB2151) (scFv, V domains shown, not shown: small tags and cut ends)
VH: B1 scFv (part 1 of 2), part
VL: B1 scFv (part 2 of 2), part

Key:
[1] = molecular target: β-淀粉样多肽 Aβ1-42 (beta-amyloid peptide, purified) (human) (UniProt P05067); assay: repeated phage ELISA on coated Aβ, OD490, against negative control
[2] = molecular target: β-淀粉样多肽 Aβ1-42 (beta-amyloid peptide, purified) (human) (UniProt P05067); assay: phage ELISA on coated Aβ, OD490, against negative control (2% MPBS)
[3] = molecular target: β-淀粉样多肽 Aβ1-42 (beta-amyloid peptide, purified) (human) (UniProt P05067); assay: ELISA on coated Aβ, whole-cell protein fraction; induced against uninduced strain
[4] = molecular target: β-淀粉样多肽 Aβ1-42 (beta-amyloid peptide, purified) (human) (UniProt P05067); assay: ELISA on coated Aβ, culture supernatant fraction; induced against uninduced strain
[5] = molecular target: β-淀粉样多肽 Aβ1-42 (beta-amyloid peptide, purified) (human) (UniProt P05067); assay: ELISA of soluble scFv fractions on coated Aβ, anti-c-myc detection; induced against uninduced strain

UniProt P05067, sequence (P05067 672-713 limits assumed): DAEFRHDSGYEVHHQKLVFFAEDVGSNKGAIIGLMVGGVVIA

Binder | ELISA A值 fold over negative control [1] [fold] | ELISA A值 fold over negative control [2] [fold] | ELISA A值 fold of induced over uninduced strain [3] [fold] | ELISA A值 fold of induced over uninduced strain [4] [fold] | ELISA A值 fold of induced over uninduced strain [5] [fold]
B1 | > 5 | 2 | – | – | –
B2 | > 5 | > 2 | – | – | –
B3 | – | – | > 5 | > 5 | > 2
B4 | – | – | > 5 | > 5 | > 2
